Values quoted from earlier work in PMC7519539.

Molecular target: RNA polymerase core (E) (Escherichia coli) (UniProt P0A7Z4)

Chain of sigma38 (P13445 whole entry): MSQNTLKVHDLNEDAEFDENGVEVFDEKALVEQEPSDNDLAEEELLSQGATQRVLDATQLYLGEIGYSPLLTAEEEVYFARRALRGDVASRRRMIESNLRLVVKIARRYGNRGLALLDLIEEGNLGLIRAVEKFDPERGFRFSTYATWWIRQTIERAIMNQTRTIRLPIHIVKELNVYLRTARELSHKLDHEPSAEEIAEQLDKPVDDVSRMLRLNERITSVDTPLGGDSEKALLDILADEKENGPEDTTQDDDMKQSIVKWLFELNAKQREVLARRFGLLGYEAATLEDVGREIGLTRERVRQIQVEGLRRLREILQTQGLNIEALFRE

Substance: sigma38 (from UniProt P13445)
- Kd: 4.26 nM
